US20070014720A1 (published 2007)

Biological target: T1, human CD20 (human, UniProt P11836 1-297)
T1 sequence (looked up): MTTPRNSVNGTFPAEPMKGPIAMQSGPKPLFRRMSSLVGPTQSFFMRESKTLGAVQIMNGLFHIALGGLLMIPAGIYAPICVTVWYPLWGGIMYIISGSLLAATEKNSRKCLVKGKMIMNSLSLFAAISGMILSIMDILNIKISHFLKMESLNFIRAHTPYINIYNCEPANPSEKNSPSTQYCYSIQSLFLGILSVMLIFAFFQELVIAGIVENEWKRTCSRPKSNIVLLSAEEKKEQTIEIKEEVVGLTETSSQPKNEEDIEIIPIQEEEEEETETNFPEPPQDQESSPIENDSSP
Assay: cell-based or functional assay

B1: mAb 1.12.3 (antibody, human IgG1, V domains shown)
VH: EVQLVQSGAEVKKPGESLKISCKGSGYSFTSYWIGWVRQMSGKGLEWMGIIYPGDSDTRYSPSFQGQVTISADKSISTAYLQWSSLKASDTAIYYCARHPSYGSGSPNFDYWGQGTLVTVSS
VL: DIVMTQTPLSSPVTLGQPASISCRSSQSLVYSDGNTYLSWLQQRPGQPPRLLFYKISNRFSGVPDRFSGSGAGTDFTLKISRVEAEDVGVYYCVQATQFPLTFGGGTKVEIK
  % Lysis Daudi 0.001 µg/ml ADCC: 17%
  % Lysis Daudi 1 µg/ml ADCC: 63%
  % Lysis Raji 0.001 µg/ml ADCC: 3%
  % Lysis Raji 1 µg/ml ADCC: 10%
  % Lysis Ramos 0.001 µg/ml ADCC: 2%
  % Lysis Ramos 1 µg/ml ADCC: 29%
  EC50 µg/ml Daudi CDC: 9.39 µg/mL
  EC50 µg/ml Raji CDC: 1.31 µg/mL
  EC50 µg/ml Ramos Apoptosis Alamar Blue: 0.026 µg/mL
  EC50 µg/ml Ramos Apoptosis Annexin V: 0.191 µg/mL
  EC50 µg/ml Ramos Apoptosis Cell Titer Glo: 0.0989 µg/mL
  EC50 µg/ml Ramos Apoptosis WST-1: 0.0383 µg/mL
  EC50 µg/ml Ramos CDC: 2.07 µg/mL

B2: mAb 1.4.3 (antibody, human IgG1, V domains shown)
VH: EVQLVQSGAEVKKPGESLKISCKGSGYSFTSYWIGWVRQMPGKGLEWMGIIYPGDSDTRYSPSFQGQVTISADKSITTAYLQWSSLKASDTAMYYCARHPSYGSGSPNFDYWGQGTLVTVSS
VL: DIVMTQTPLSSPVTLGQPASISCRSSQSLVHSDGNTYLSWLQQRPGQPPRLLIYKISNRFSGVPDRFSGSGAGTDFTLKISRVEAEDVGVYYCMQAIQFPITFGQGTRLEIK
  % Lysis Daudi 0.001 µg/ml ADCC: 62%
  % Lysis Daudi 1 µg/ml ADCC: 72%
  % Lysis Raji 0.001 µg/ml ADCC: 7%
  % Lysis Raji 1 µg/ml ADCC: 37%
  % Lysis Ramos 0.001 µg/ml ADCC: 4%
  % Lysis Ramos 1 µg/ml ADCC: 52%
  EC50 µg/ml Daudi CDC: ~10 µg/mL
  EC50 µg/ml Raji CDC: 1.3 µg/mL
  EC50 µg/ml Ramos Apoptosis Alamar Blue: 0.11 µg/mL
  EC50 µg/ml Ramos Apoptosis Annexin V: 2.86 µg/mL
  EC50 µg/ml Ramos Apoptosis Cell Titer Glo: 0.342 µg/mL
  EC50 µg/ml Ramos Apoptosis WST-1: 0.0514 µg/mL
  EC50 µg/ml Ramos CDC: 13.1 µg/mL

B3: mAb 2.2.2 (antibody, human IgG1, V domains shown)
VH: EVQLVQSGAEVKKPGESLKISCKGSGYSFTSYWIGWVRQMPGKGLEWMGIIYPGDSDTKYSPSFQGQVTISADKSISTAYLQWSSLKASDTAMYYCARQGDFWSGNGGMDVWGQGTTVTVSS
VL: DIVMTQTPLSSPVTLGQPASISCRSSQSLVSRDGNTYLSWLQQRPGQPPRLLIYKISNRFSGVPDRFSGSGAGTDFTLKISRVEVEDVGVYYCMQATQFPITFGQGTRLEIK
  % Lysis Daudi 0.001 µg/ml ADCC: 60%
  % Lysis Daudi 1 µg/ml ADCC: 79%
  % Lysis Raji 0.001 µg/ml ADCC: 7%
  % Lysis Raji 1 µg/ml ADCC: 44%
  % Lysis Ramos 0.001 µg/ml ADCC: 12%
  % Lysis Ramos 1 µg/ml ADCC: 65%
  EC50 µg/ml Daudi CDC: 1.66 µg/mL
  EC50 µg/ml Raji CDC: 0.5 µg/mL
  EC50 µg/ml Ramos Apoptosis Alamar Blue: 0.0207 µg/mL
  EC50 µg/ml Ramos Apoptosis Annexin V: 0.373 µg/mL
  EC50 µg/ml Ramos Apoptosis Cell Titer Glo: 0.139 µg/mL
  EC50 µg/ml Ramos Apoptosis WST-1: 0.00076 µg/mL
  EC50 µg/ml Ramos CDC: 1.03 µg/mL

B4: mAb 2.4.1 (antibody, human IgG1, V domains shown)
VH: EVQLVQSGAEVKKPGESLKISCKGSGYSFTNYWIGWVRQMPGKGLEWMGIIYPGDSDTRYSPSFQGQVTISADKSISTAYLQWSSLKASDTAMYYCARHGDYYASESSAFDIWGQGTMVTVSS
VL: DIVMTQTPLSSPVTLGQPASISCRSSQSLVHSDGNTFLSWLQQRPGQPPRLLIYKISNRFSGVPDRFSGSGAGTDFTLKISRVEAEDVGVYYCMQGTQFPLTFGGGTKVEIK
  % Lysis Daudi 0.001 µg/ml ADCC: 36%
  % Lysis Daudi 1 µg/ml ADCC: 76%
  % Lysis Raji 0.001 µg/ml ADCC: 9%
  % Lysis Raji 1 µg/ml ADCC: 24%
  % Lysis Ramos 0.001 µg/ml ADCC: -3%
  % Lysis Ramos 1 µg/ml ADCC: 46%
  EC50 µg/ml Daudi CDC: ~10 µg/mL
  EC50 µg/ml Raji CDC: 3.72 µg/mL
  EC50 µg/ml Ramos Apoptosis Alamar Blue: 0.112 µg/mL
  EC50 µg/ml Ramos Apoptosis Annexin V: 4.68 µg/mL
  EC50 µg/ml Ramos Apoptosis Cell Titer Glo: 0.983 µg/mL
  EC50 µg/ml Ramos Apoptosis WST-1: 0.042 µg/mL
  EC50 µg/ml Ramos CDC: 3.12 µg/mL
